Test results published in patent US20210363269A1 (ALX ONCOLOGY, published 2021).

T1: C57BL/6 mouse SIRP-α D1 domain (mouse (C57BL/6 strain), UniProt P97797 32-148)
T1 sequence: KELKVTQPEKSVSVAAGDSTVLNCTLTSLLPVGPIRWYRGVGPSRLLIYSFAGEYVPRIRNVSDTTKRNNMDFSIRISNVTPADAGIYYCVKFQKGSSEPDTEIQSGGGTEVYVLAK

T2: mouse 129 SIRP-α D1 domain (mouse (129 strain), UniProt P97797 32-150)
T2 construct: also called m129
T2 chain: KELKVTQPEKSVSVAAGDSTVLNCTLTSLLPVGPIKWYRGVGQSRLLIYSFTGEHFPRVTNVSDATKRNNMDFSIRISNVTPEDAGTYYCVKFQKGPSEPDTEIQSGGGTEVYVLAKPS

T3: high affinity SIRP-α D1 variant CV1-3
T3 chain: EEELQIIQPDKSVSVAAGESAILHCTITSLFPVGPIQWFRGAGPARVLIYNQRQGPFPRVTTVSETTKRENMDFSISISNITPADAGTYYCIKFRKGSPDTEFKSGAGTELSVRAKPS

T4: NOD mouse SIRP-α D1 domain (mouse (NOD strain))
T4 chain: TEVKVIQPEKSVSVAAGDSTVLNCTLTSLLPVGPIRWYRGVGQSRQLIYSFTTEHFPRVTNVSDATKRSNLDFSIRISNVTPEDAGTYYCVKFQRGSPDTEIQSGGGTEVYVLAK

T5: cynomolgus SIRP-α D1 domain (cyno1) (cynomolgus monkey, UniProt Q5TFQ8 30-148 (human entry), limits assumed)
T5 chain: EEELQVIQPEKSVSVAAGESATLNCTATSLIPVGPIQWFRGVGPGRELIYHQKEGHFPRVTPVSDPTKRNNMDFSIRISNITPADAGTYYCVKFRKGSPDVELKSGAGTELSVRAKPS

T6: cynomolgus SIRP-α D1 domain (cyno2) (cynomolgus monkey, UniProt Q5TFQ8 30-148 (human entry), limits assumed)
T6 chain: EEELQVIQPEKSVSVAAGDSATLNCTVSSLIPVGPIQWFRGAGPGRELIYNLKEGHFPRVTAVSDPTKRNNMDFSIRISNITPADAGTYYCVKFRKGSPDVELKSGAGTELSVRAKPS


Columns and labels:
Experiment in all cases: SPR, Langmuir fit
[1] = molecular target: T1, C57BL/6 mouse SIRP-α D1 domain
Summary of the method: (§1)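 Antibody clones in scFv-Fc format were captured from pre-filtered culture media onto anti-human IgG Fc, amine-coupled (about 4000 RU) on a GLC chip of a ProteOn XPR36 instrument. SIRP analytes were flowed in PBS pH 7.4 with 0.01% Tween-20 at 25° C. Data were double-referenced against interspot and buffer-blank responses. Dissociation rate constants (koff) were derived by fitting a 1:1 Langmuir model.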

[2] = molecular target: T2, mouse 129 SIRP-α D1 domain
Summary of the method: as §1

[3] = molecular target: T3, high affinity SIRP-α D1 variant CV1-3
Summary of the method: as §1

[4] = molecular target: T7, human SIRPβ isoform 1 (human, UniProt O00241 30-148)
T7 construct: also called SIRPb; sirpb1
T7 sequence (O00241 30-148 limits assumed): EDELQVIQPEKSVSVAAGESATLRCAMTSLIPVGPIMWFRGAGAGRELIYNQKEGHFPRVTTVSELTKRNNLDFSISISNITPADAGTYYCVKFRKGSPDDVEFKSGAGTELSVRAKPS
Summary of the method: as §1

[5] = molecular target: T4, NOD mouse SIRP-α D1 domain
Summary of the method: as §1

[6] = molecular target: T8, human SIRP-α v1 D1 domain (human, UniProt P78324 31-149)
T8 construct: also called human v1
T8 sequence (P78324 31-149 limits assumed): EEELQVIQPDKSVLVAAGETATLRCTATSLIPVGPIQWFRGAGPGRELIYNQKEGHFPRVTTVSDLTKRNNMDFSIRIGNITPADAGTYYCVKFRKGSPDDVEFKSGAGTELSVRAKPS
Summary of the method: as §1

[7] = molecular target: T5, cynomolgus SIRP-α D1 domain (cyno1)
Summary of the method: as §1

[8] = molecular target: T9, human SIRP-α v2 D1 domain (human)
T9 construct: also called human v2
T9 sequence (chain, as listed by the source limits assumed): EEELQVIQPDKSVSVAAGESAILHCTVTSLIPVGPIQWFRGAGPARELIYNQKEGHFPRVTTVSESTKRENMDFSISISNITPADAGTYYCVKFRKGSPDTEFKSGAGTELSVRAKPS
Summary of the method: as §1

[9] = molecular target: T6, cynomolgus SIRP-α D1 domain (cyno2)
Summary of the method: as §1

[10] = molecular target: T10, human SIRPγ isoform 1 (human, UniProt Q9P1W8 29-147)
T10 construct: also called SIRPg; sirpg
T10 sequence (Q9P1W8 29-147 limits assumed): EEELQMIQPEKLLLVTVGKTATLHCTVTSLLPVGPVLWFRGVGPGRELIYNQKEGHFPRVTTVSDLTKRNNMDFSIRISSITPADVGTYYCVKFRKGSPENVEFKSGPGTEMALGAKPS
Summary of the method: as §1

Row | Binder | koff [1] [s⁻¹] | koff [2] [s⁻¹] | koff [3] [s⁻¹] | koff [4] [s⁻¹] | koff [5] [s⁻¹] | koff [6] [s⁻¹] | koff [7] [s⁻¹] | koff [8] [s⁻¹] | koff [9] [s⁻¹] | koff [10] [s⁻¹]
1 | S59 (scFv, V domains shown, also called clone 59) VH: DVQLVESGGGVVRPGESLRLSCAVSGFRFSSHAMSWVRQAPGKGLEWVSGISSGGDTYYVDSVKGRFTISRDNSKNTLYLQVNSLTAEDTAIYYCARETWNHLFDYWGLGTLVTVSS VL: ALTQPASVSANLGETVKITCSGGDSSSHYYGWYQQKSPGSAPVTVIYSDDERPSDIPSRFSGSASGSTATLTITGVRVEDEAIYYCGAYDGSTYANTFGAGTTLTVL | 0.00239 | 0.000209 | 8.19e-05 | 0.000107 | 0.00135 | 4.98e-05 | 0.000106 | 8.63e-05 | 0.000113 | 4.28e-05
2 | S76 (scFv, V domains shown, also called clone 76) VH: DVQLVESGGGVVRPGESLRLSCAASGFTFSSYAMSWVRQAPGKGLEWLAGISAGGSDTYYIDSVKGRFTISRDNSKNSLYLQMNSLTAEDTAVYYCARETWNHLFDYWGLGTLVTVSS VL: ALTQPASVSANPGETVKITCSGGDWYSTYYGWYQQKSPGSAPVTVIHSDDKRPSDIPSRFSGSASGSAATLTITGVRVEDEAVYYCAGYDGRTYINTFGAGTTLTVL | 0.000998 | 0.000179 | 0.000155 | 0.000187 | 0.000576 | 0.00014 | 0.000277 | 0.000209 | 0.000269 | 0.000177
3 | S23 (scFv, V domains shown, also called clone 23) VH: DVQLVESGGGVVRPGESLRLSCAASGFTFSSHAMSWVRQAPGKGLEWLAGISAGGSDTYYIDSVKGRFTISRDNSKSSLYLRMNSLTAEDTAVYYCARETWNHLFDYWGLGTLVTVSS VL: ALTQPASVSANPGETVKITCSGGDYYSTYYAWYQQKSPGSAPVTVIHSDDERPSDIPSRFSGSASGSAATLIITGVRVEDEAVYFCGGYDGRTYINTFGAGTTLTVL | 0.00132 | 0.000134 | 0.000106 | 0.000114 | 0.000823 | 8.35e-05 | 0.00016 | 0.000135 | 0.000183 | 0.000104
4 | S60 (scFv, V domains shown, also called clone 60) VH: DVQLVDSGGGVVRPGESLRLSCAASGFTFSSYAMSWVRQAPGKGLEWLAGISAGGSDTYYIDSVKGRFTISRDNSKNSLYLQMNSLTAEDTAVYYCARETWNHLFDYWGLGTLVTVSS VL: ALTQPASVSANPGETVKITCSGGDYYSTYYGWYQQKSPGSAPVTVIHSDDKRPSDIPSRFSGSASGSAATLTITGVRVEDEAVYFCGAYDGRTYINTFGAGTTLTVL | 0.0015 | 0.000221 | 0.000145 | 0.000153 | 0.000726 | 0.00014 | 0.000192 | 0.000186 | 0.000175 | 0.0001
5 | S17 (scFv, V domains shown, also called clone 17) VH: DVQLVESGGAVVRPGESLRLSCAASGFTFSSYAMSWVRQAPGKGLEWLAGISAGGSDTYYIDSVKGRFTISRDNSENSLYLQMNSLTAEDTAVYYCARETWNHLFDYWGLGTLVTVSS VL: ALTQPASVSANPGETVKITCSGGDWYSTYYGWYQQKSPGSAPVTVIHSDDKRPSDIPSRFSGSASGSAATLTITGVRVEDEAVYYCAGYDGRTYINTFGAGTTLTVL | 0.00113 | 0.000234 | 0.000154 | 0.000125 | 0.000612 | 0.000124 | 0.000193 | 0.000197 | 0.000207 | 0.000102
6 | S70 (scFv, V domains shown, also called clone 70) VH: DVQLVESGGGVVRPGESLRLSCAASGFTFSSYAMSWVRQAPGKGLEWLAGISAGGSDAYYIDSVKGRFTISRDNSKNSLYLQMNSLTAEDTAVYYCARETWNHLFDYWGLGTLVTVSS VL: ALTQPASVSANPGETVKITCSGGDWYSTYYGWYQQKSPGSAPVTVIHSDDKRPSDIPSRFSGSASGSAATLTITGVRVEDEAVYYCAGYDGRTYINTFGAGTTLTVL | 0.000987 | 0.00027 | 0.00026 | 0.000225 | 0.000672 | 0.000225 | 0.000296 | 0.00029 | 0.000245 | 0.000222
7 | S65 (scFv, V domains shown, also called clone 65) VH: DVQLVESGGGVVRPGESLRLSCAASGFTFSSYAMSWVRQAPGKGLEWLAGISAGGSDTYYIDSVKGRFTISRDNSKNSLYLQMNSLTAEDTAVYYCARETWNHLFDYWGLGTLVTVSS VL: ALTQPASVSANPGETVKITCSGGDYYSTYYGWYQQKSPGSAPVTVIHSDDKRPSDIPSRFSGSASGSAATLTITGVRVEDEAVYFCGAYDGRTYINTFGAGTTLTVL | 0.000786 | 0.000159 | 0.000147 | 0.000154 | 0.000607 | 0.000145 | 0.000188 | 0.000172 | 0.00019 | 0.000134
8 | S66 (scFv, V domains shown, also called clone 66; scFv-Fc form of AB66) VH: DVQLVESGGGVVRPGESLRLSCAASGFTFSSYAMSWVRQAPGKGLEWLAGISAGGSDTYYIDSVKGRFTISRDNPKNSLYLQMSSLTAEDTAVYYCARETWNHLFDYWGLGTLVTVSS VL: ALTQPASVSANPGETVKITCSGGDYYSTYYAWYQQKSPGSAPVTVIHSDDKRPSDIPSRFSGSASGSAATLIITGVRVEDEAVYYCGGYDGRTYINTFGAGTTLTVL | 0.00102 | 0.000127 | 0.00011 | 0.000138 | 0.00049 | 0.000118 | 0.00025 | 0.000206 | 0.000255 | 0.000126
9 | S56 (scFv, V domains shown, also called clone 56) VH: DVQLVESGGGVVRPGESLRLSCAASGFTFSSYAMSWVRQAPGKGLEWLAGISAGGSDTYYIDSVKGRFTISRDNSKNSLYLQVNSLTAEDTAVYYCARETWNHLFDYWGLGTLVTVSS VL: ALTQPASVSANPGETVKITCSGGGYYSTYYGWYQQKSPGSAPVTVIHSDDKRPSDIPSRFSGSASGSAATLTITGVRVEDEAVYYCAGYDGRTYINTFGAGTTLTVL | 0.00429 | 0.000406 | 0.000203 | 0.000362 | 0.00106 | 0.000228 | 0.000295 | 0.000286 | 0.00028 | 0.000215
10 | S69 (scFv, V domains shown, also called clone 69) VH: DLQLVESGGGVVRPGESLRLSCAASGFTFSSYAMSWVRQAPGKGLEWLAGISAGGSDTYYIDSVKGRFTISRDNSKNSLYLQMNSLTAEDTAVYYCARETWNHLFDYWGLGTLVTVSS VL: ALTQPASVSANPGETVKIICSGGDYYSTYYGWYQQKSPGSAPVTVIHSDDKRPSDIPSRFSGSASGSAATLTITGVRVEDEAVYFCGAYDGRTYINTFGAGTTLTVL | 0.000765 | 0.000246 | 0.000233 | 0.000229 | 0.000709 | 0.000205 | 0.000255 | 0.000267 | 0.000216 | 0.000199
11 | S71 (scFv, V domains shown, also called clone 71) VH: DVQLVESGGGVVRPGESLRLSCAASGFTFSSYAMSWVRQAPGKGLEWLAGISAGGSDTYYIDSVKGRFTISRDNSKNSLYLQMNSLTAEDTAVYYCARETWNHLFDYWGLGTLVTVSS VL: ALTQPASVSANPGETVKITCSGGGYYSTYYGWYQQKSPGSAPVTVIHSDDKRPSDIPSRFSGSASGSAATLTITGVRVEDEAVYYCAGYDARTYINTFGAGTTLTVL | 0.00341 | 0.000417 | 0.000379 | 0.000388 | 0.00112 | 0.000335 | 0.000364 | 0.000403 | 0.000313 | 0.000316
